Assays:
[1] = target: T1, PU.1 ETS domain (PU.1ΔN167) (murine, UniProt P17433 167-272); assay: competition
[2] = target: T1, PU.1 ETS domain (PU.1ΔN167); assay: competition; remark: listed apart in the source
[3] = target: T1, PU.1 ETS domain (PU.1ΔN167); assay: fluorescence anisotropy

B1: NS (dsDNA)
DNA 1: GCGAATAAGCGAGAGTGAAACCG
DNA 2: CGGTTTCACTCTCGCTTATTCGC
[1]
  binding result: no binding

B2: [5']AGC (dsDNA)
DNA 1: GCGAATAAGCGGAAGTGAAACCG
DNA 2: CGGTTTCACTTCCGCTTATTCGC
[2]
  binding signal: ~1 Kd ratio to Cy3-[5']AGC (equal within experimental uncertainty)

B3: Alexa Fluor 488 end-labeled duplex (dsDNA)
DNA 1: CAAGCGGAAGTGAG
DNA 2: CTCACTTCCGCTTG
[3]
  binding result: binds
